Laboratory results taken from patent US20230365696A1 (SYNTHEKINE, published 2023).

T1: extracellular domain of mIFNgR1 (mouse, UniProt P15261 26-254)
T1 construct: also called mIFNgR1 ECD; mouse IFNgR1
T1 sequence: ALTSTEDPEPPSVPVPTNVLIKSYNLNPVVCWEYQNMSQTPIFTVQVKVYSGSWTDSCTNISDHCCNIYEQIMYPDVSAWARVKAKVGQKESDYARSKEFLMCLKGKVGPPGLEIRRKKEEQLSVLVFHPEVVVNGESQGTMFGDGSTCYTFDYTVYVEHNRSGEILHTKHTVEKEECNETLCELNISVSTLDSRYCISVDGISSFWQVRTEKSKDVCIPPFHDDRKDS

T2: extracellular domain of hIFNgR1 (human, UniProt P15260 18-245)
T2 construct: also called hIFNgR1 ECD; human IFNgR1
T2 sequence: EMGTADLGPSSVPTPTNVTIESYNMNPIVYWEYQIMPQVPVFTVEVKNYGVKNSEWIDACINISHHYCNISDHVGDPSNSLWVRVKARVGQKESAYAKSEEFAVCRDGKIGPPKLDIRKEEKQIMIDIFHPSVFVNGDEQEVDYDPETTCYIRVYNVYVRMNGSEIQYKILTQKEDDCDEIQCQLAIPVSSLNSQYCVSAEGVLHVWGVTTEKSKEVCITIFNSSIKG


Assays:
[1] = target: T1, extracellular domain of mIFNgR1; assay: flow cytometry, cross-reactivity
[2] = target: T2, extracellular domain of hIFNgR1; assay: periplasmic extract ELISA on coated antigen
Procedure: Upon completion of the biopanning of Example 3, three 96-well plates of individual phage clones were isolated in order to perform periplasmic extract ELISA (PE-ELISA) on IFNgR1 coated plates to identify positive VHH binders that selectively bound IFNgR1. A 96-well plate was coated with IFNgR1 and PBS under the same conditions. Next, wells were blocked at 37° C. for 1 h. Then, […] was added to each well and incubated for 1 h. Subsequently, 100 μl of anti-tag polyclonal antibody conjugated to HRP was added to each well and incubated at 37° C. for 1 h. Plates were developed with TMB substrate. The reaction was stopped by the addition of H2SO4. Absorbance at 450 nm was read on a microtiter plate reader. Antibodies with absorbance of the antigen-coated well at least threefold greater than PBS-coated control were considered to provide specific binding to IFNgR1. Positive clones were sequenced, and sequences analyzed to identify unique clonotypes

[3] = target: T2, extracellular domain of hIFNgR1; assay: flow cytometry

Row | binding result [1] | binding result [2] | binding result [3] | Binder
1 | binds | binds | – | DR903 (VHH, also called hIFNgR1 VHH) VHH: EVQLVESGGGLVQAGGSLRLSCAASGRIASDYTRGWFRQAPGKEREFVAAIIRSVGDSYYADSVKGRFTISIDNAENTVYLQMNSLKPEDTAVYYCAVGGHLYYGSRWRYPASYDYWGQGTQVTVSS
2 | binds | binds | – | DR924 (VHH, also called hIFNgR1 VHH) VHH: QVQLVESGGGLVQAGGSLRLSCTASGRTFSRYAMGWFRQAPGKEREFVATISRSGGTTSYANSVKGRFTISRDNAKNTVYLQMNSLKTEDTAVYNCAARDGPAMGVFGSDYDYWGQGTLVTVSS
3 | binds | binds | – | DR916 (VHH, also called hIFNgR1 VHH) VHH: EVQLVESGGGLVQPGGSLRLSCTASGRPRTTYAMGWFRQAPGKEREIVAAISKAGGSTYVADSAKGRFAISKDNAKNTVYLQMNSLKPEDTAVYYCAARAGFAAQIFEYDYWGQGTLVTVSS
4 | binds | – | binds | DR905 (VHH, also called hIFNgR1 VHH) VHH: EVQLVESGGGLVQAGGSLRLSCVASGRTFTGYAMGWFRQAPGKEREFVAVITWSGATTYYSASVKGRFTLSRDNAKNTVYLQMNSLKSEDTAVYYCAIRIRDGVSPENPNEYGYWGQGTQVTVSS
5 | binds | binds | – | DR920 (VHH, also called hIFNgR1 VHH) VHH: EVQLVESGGGLVQAGGSLRLSCAASGRSFANYAMGWFRQAPGKERETVAAISRGGGSTWYADSVKGRFTISKDNAKNTVYLQMNSLKPEDTAIYYCAARSYSGSYTYSFGEYDYWGQGTQVTVSS
6 | binds | – | binds | DR910 (VHH, also called hIFNgR1 VHH) VHH: EVQLVESGGGLVQTGGSLRLSCAASGRTFSSYAMAWFRQAPGKEREFVAAISILGGSADYEDSVQGRFTISRDNAKNTMYLQMNSLKPEDTAVYYCAARRPAPSDSYWSSTSYAYWGQGTLVTVSS
7 | – | binds | – | DR921 (VHH, also called hIFNgR1 VHH) VHH: QVQLVESGGGLVQAGDSLRLSCAASGRTFTFSTHNMGWFRQAPGKEREFVGGIMWTSRASYADSVKGRFTVSRDNAKNTVYLQMNSLKPEDTAVYYCAAAWYGNSGASYDYWGQGTQVTVSS
8 | – | binds | – | DR904 (VHH, also called hIFNgR1 VHH) VHH: EVQLVESGGGLVQAGGSLRLSCEASESILSINTMGWFRQAPGKQRELVAAISSGGSTNYADSVKGRFTISRDNAKNTVYLQMNSLKPEDTAVYYCDADRAYYKGQGTQVTVSS
9 | binds | binds | – | DR913 (VHH, also called hIFNgR1 VHH) VHH: EVQLVESGGGLVQAGGFLRLSCAASGRTFSSYAMGWFRQIPGKERELVAAISSWSGGSTYYADSVKGRFTISRDNAKNTVYLQMLSLKPEDTAVYYCTTGDYYSDYFKYDNENWGKGTQVTVSS
10 | binds | binds | – | DR917 (VHH, also called hIFNgR1 VHH) VHH: EVQLVESGGGLVQAGGSLRLSCAASGRTFSGYNMGWFRQAPGKEREFVAAIAWAGSRTYYTDSVKGRFTISRDNAKNTMYLQMNTLRPEDTAVYYCAAHDETYYRLDRVDLYTHWGQGTLVTVSS
11 | binds | binds | – | DR925 (VHH, also called hIFNgR1 VHH) VHH: EVQLVESGGGLVQAGGSLVLSCAASGRTFSRYAMGWFRQAPGKEREFVAAISIGGGSADYADTVKGRFTISRNNAKNTMYLQMNSLKPEDTAVYYCAARTPRPSSSYFTPQDYEYWGQGTLVTVSS
12 | binds | – | binds | DR908 (VHH, also called hIFNgR1 VHH) VHH: EVQLVESGGGLVQAGGSLRVTCAASGRTFTSLAMGWFRQAPGKEREFVAAISRSGGSTDYADSVKGRFFISRDNAKSTLYLQMSSLKPEDTAVYYCAARDYSTLQYYNEYEYSDWGQGTQVTVSS
13 | binds | binds | – | DR922 (VHH, also called hIFNgR1 VHH) VHH: QVQLVESGGGLVRAGGSLRLSCAASGSITSINTMGWFRQAPGKQRELVAAITSGGSTNYADSVKGRFTISRDNARNTVYLQMYSLKPEDTAVYYCEADSMYFRGQGTQVTVSS
14 | binds | binds | – | DR912 (VHH, also called hIFNgR1 VHH) VHH: EVQLVESGGGLVQAGGSLRLSCAPSGRTFSSYAMAWFRQPPGKEREFVAAITVSGASTYYADSVKGRFTISRDNAKNSMYLQMNSLKPEDTAVYYCAAGGPGTIFPDYDYWGQGTQVTVSS
15 | binds | binds | – | DR926 (VHH, also called hIFNgR1 VHH) VHH: EVQLVESGGGLVQAGGSLRLSCAASGRTFSRYAMNWFRQAPGKEREFVAAISWSSGNTYVADSVKGRFTISRDNAKNTMYLQMNNLAPEDTAVYYCAATTIATMSDENTYWGQGTQVTVSS
16 | binds | – | binds | DR907 (VHH, also called hIFNgR1 VHH) VHH: EVQLVESGGGLVQAGGSLRLSCAASGRTFSNYAMGWFRQAPGNEREFVAAINWNIGSTYYADSVKGRFTISRDNAKNTVYLQMNSLKPEDTAVYYCGAVWPTGRLRVDSEYDYWGQGTQVTVSS
17 | binds | binds | – | DR918 (VHH, also called hIFNgR1 VHH) VHH: EVQLVESGGGLVQAGGSLRLSCATSGLTDSTYGMAWFRQAPGKEREFVAAISRAGGSADHADSVKGRFTVSRDNAKKMVYLQMNSLKPEDTAVYYCASGRSYSSPYDYFNALAYSYWGQGTQVTVSS
18 | binds | binds | – | DR915 (VHH, also called hIFNgR1 VHH) VHH: EVQLVESGGGLVQAGGSLRLSCAAARRTLHNFAMAWFRQAPGKEREFVAAISKGGGSADYADSVKGRFTISRDNAKNTVYLQMNSLKPEDTAVYYCAANDLASYSDSSYTSTSRYDYWGQGTQVTVSS
19 | binds | – | binds | DR909 (VHH, also called hIFNgR1 VHH) VHH: EVQLVESGGGLVQAGGSLRLSCAASGRTFGTSFGALSMGWFRQAPGKEREFVAAITRNTGRTFYADSVKDRFTISRDNAKNTASLQMNSLEPEDTAVYICAATNSYDDLRRSYAYNYWGQGTQVTVSS
20 | binds | – | binds | DR906 (VHH, also called hIFNgR1 VHH) VHH: EVQLVESGGGLVQAGGSLRLSCAASGSTFSTYVMGWFRQAPGKEREFVAAISRSGGTTTYADSVKGRFDISRDNGKNTLFLQMNSLIPEDTAAYYCAARAGPAIGRTANDYHSWGQGTLVTVSS
21 | binds | binds | – | DR914 (VHH, also called hIFNgR1 VHH) VHH: EVQLVESGGGLVQAGGSLTLSCVASGRAFSNSAMAWFRQTPGKEREFVSAISRGGGSTDYADSVKGRFTISKDNAKNTVYLQMNSLKPEDTAVYYCAMRYYSGRYYESLEYDYWGQGTQVTVSS
22 | binds | – | binds | DR911 (VHH, also called hIFNgR1 VHH) VHH: EVQLVESGGALVQAGGSLRLSCTVSGRSFSTYAMAWFRRAPGKERELVSAITVGGGSTYYVDSVKGRFTISRENAKNTLYLQMNNLKPEDTAIYICAARDYRRRSYAPEAEQYDYWGQGTQVTVSS
23 | – | binds | – | DR919 (VHH, also called hIFNgR1 VHH) VHH: EVQLVESGGGLVQPGGFLRLSCAASRRTLSTYAMGWFRQAPGKEREFVAAISWRSGNTYYADSVKGRFTISRDNAKNTMYLQMNSLKPEDTAVYYCAANEVATMSGPHDHWGQGTLVTVSS
24 | binds | binds | – | DR923 (VHH, also called hIFNgR1 VHH) VHH: QVQLVESGGGLVQAGGSLRLSCAASRRTFMTYAMGWFRQAPGKEREFVAAISWSSGSTYYADSVKGRFTISRDNAKNTMYLQMNSLKPEDTAVYYCTASSIATMYGPNDYAGQGTLVTVSS
